Assay results from patent publication US7507799 (CORNELL RESEARCH FOUNDATION, dated 2009).

What was measured:
[1] = biological target: p75 on vascular smooth muscle cell line (p75Ts-Tag-SMC); test: cell-based or functional assay
[2] = biological target: T1, p75NTR on A875 cells (UniProt P08138 29-427); test: ratio of IC50s, whole-cell competition against 125I-NGF on cells expressing only p75
T1 construct: whole, on cells; also called p75 receptor; cells expressing only p75
T1 sequence (looked up): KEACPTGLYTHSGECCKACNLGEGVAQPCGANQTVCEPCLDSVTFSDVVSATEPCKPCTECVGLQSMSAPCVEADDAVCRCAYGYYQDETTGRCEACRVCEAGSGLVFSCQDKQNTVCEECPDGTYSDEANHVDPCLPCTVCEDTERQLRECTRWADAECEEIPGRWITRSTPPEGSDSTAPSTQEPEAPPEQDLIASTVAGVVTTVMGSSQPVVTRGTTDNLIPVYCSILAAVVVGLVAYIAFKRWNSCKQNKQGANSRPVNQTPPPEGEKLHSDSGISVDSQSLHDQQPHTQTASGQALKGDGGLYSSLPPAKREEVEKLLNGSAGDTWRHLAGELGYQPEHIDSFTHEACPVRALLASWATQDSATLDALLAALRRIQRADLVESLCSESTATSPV
Protocol: (§1) FIG. 8: Binding analysis of mature and cleavage-resistant pro-NGF to TrkA or p75^NTR receptors. […] Competition analysis of equilibrium binding was performed using a whole-cell assay. Cells were incubated with 1 nM radioiodinated NGF in the presence or absence of unlabeled mature NGF or unlabeled proNGF from 0.005 to 7 nM concentration for 1 hour at […] Nonspecific binding measured in parallel incubation with 500-fold excess mature NGF was less than 10% of total binding; all results were corrected for this non-specific binding. Each point represents the mean±standard deviation of quadruplicate determinations. Squares, commercial mature NGF; open circles, cleavage resistant pro-NGF.
(§2) The cleavage resistant proform of NGF binds with higher affinity than the cleaved mature form of NGF to the p75 receptor. Competition binding assays were performed to determine the affinity of interaction of the uncleaved proform to p75 or to trk A. Commercially purchased, predominantly mature NGF (Enzo Products for Science, Farmingdale, N.Y.) was radiolabeled and incubated with cells expressing only p75, in the presence or absence of increasing concentrations of either unlabeled cleaved NGF, or of unlabeled cleavage resistant pro-NGF. […] Thus, the cleavage resistant pro-NGF proform binds less effectively to trk A.

[3] = biological target: TrkA on 293 cells; test: whole-cell competition against 1 nM 125I-NGF on 293 cells expressing only trk A
Chain of TrkA on 293 cells (chain, as listed by the source): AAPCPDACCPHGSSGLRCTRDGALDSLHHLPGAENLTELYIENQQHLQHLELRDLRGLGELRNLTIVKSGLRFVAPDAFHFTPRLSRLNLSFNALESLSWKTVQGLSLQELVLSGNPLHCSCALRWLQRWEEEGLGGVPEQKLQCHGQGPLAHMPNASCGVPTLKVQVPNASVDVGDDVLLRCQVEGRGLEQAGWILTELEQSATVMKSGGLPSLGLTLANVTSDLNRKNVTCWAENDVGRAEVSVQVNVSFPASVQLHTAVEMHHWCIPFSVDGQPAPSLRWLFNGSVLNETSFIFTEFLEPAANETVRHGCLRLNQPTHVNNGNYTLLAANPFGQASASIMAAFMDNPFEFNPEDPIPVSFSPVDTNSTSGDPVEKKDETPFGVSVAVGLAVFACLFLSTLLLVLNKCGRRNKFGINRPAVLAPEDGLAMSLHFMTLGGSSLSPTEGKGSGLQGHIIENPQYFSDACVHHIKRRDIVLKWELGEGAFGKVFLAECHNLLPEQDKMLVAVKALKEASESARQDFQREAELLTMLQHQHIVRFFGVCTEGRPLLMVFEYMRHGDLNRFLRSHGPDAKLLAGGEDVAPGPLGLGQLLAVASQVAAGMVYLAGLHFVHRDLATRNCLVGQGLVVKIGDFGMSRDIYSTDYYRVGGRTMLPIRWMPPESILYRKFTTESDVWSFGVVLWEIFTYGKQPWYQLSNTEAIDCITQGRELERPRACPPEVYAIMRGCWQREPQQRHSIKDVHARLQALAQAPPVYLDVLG
Protocol: as §1, §2

[4] = biological target: T1, p75NTR on A875 cells; test: whole-cell competition against 1 nM 125I-NGF on cells expressing only p75 (A875 cells)
Protocol: as §1, §2

B1: His-tagged cleavage resistant pro-NGF (point mutant, K-R cleavage site at 120,121 mutated to A-A) (ligand)
chain: EPYTDSNVPEGDSVPEAHWTKLQHSLDTALRRARSAPTAPIAARVTGQTRNITVDPRLFKKRRLHSPRVLFSTQPPPTSSDTLDLDFQAHGTIPFNRTHRSAASSTHPVFHMGEFSVCDSVSVWVGDKTTATDIKGKEVTVLAEVNINNSVFRQYFFETKCRASNPVESGCRGIDSKHWNSYCTTTHTFVKALTTDEKQAAWRFIRIDTACVCVLSRKATRRG
notes: also called cleavage resistant proform of NGF; uncleaved proform; not shown: His tag at the carboxy-terminus
For B1, the “induction of apoptosis relative to mature NGF” value [1] was about 10 fold, the “times as effective in binding p75 as cleaved NGF” value [2] was about 5 fold and the IC50 [3] was over 5 nM. It also gave an IC50 [4] of 0.2 nM.
